Assay results reported in patent publication US20230040065A1 (Janssen / Centocor, published 2023).
Values belong to the binder of their own block, whether it stands above or below them.

Assays:
[1] = target: T1, recombinant human TNFα (human, UniProt P01375 77-233, 125I label in the receptor binding assay); assay: inhibition of 125I-TNFα binding to plate-coated p55-sf2, hybridoma supernatants
T1 construct: also called huTNFα; tumor necrosis factor alpha
Experimental: (§1) 50:1 of p55-sf2 at 0.5:g/ml in PBS was added to Optiplates to coat the wells during a one-hour incubation at 37° C. Serial dilutions of the eight TNV cell supernatants were prepared in 96-well round-bottom plates using PBS/0.1% BSA as diluent. […] The mixture was preincubated for one hour at RT. The coated Optiplates were washed to remove unbound p55-sf2 and 50:1 of the ¹²⁵I-TNFα/cell supernatant mixture was transferred to the Optiplates. After 2 hrs at RT, Optiplates were washed three times with PBS-Tween. […] of Microscint-20 was added and the cpm bound determined using the TopCount gamma counter.
A simple binding assay was done to determine whether the eight TNV mAbs contained in hybridoma cell supernatant were capable of blocking TNFα binding to receptor. The concentrations of the TNV mAbs in their respective cell supernatants were first determined by standard ELISA analysis for human IgG.

[2] = target: T1, recombinant human TNFα; assay: inhibition of 125I-TNFα (5 ng/ml) binding to plate-coated p55-sf2; hybridoma supernatant preincubated with 125I-TNFα, cpm bound counted
Experimental: Varying amounts of hybridoma cell supernatants containing known amounts of TNV mAb were preincubated with a fixed concentration (5 ng/ml) of ¹²⁵I-labeled TNFα. […] The amount of TNFα that bound to the p55 receptor in the presence of the mAbs was determined after washing away the unbound material and counting using a gamma counter. Although eight TNV mAb samples were tested in these experiments, for simplicity three of the mAbs that were shown by DNA sequence analyses to be identical to one of the other TNV mAbs (see Section 5.2.2) are not shown here. Each sample was tested in duplicate. The results shown are representative of two independent experiments.
as §1

[3] = target: T1, recombinant human TNFα; assay: cell-based or functional assay

T1 sequence (P01375 77-233 limits assumed): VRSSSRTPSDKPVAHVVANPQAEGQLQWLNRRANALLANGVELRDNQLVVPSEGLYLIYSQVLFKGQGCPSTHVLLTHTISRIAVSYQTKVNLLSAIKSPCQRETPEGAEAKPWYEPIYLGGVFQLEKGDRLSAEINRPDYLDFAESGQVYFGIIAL

fold better at blocking TNF binding to p55-sf2, against TNV118 and TNV14 [1]: ~4 fold
IC50 (read off the curve) [2]: ~4 ng/mL
neutralizing TNFα bioactivity (in vitro) [3]: 4 fold (against TNV14)
B1: TNV148 (GenTNV148.26.12) (antibody, human IgG1, kappa, V domains shown)
VH: QVQLVESGGGVVQPGRSLRLSCAASGFIFSSYAMHWVRQAPGNGLEWVAFMSYDGSNKKYADSVKGRFTISRDNPKNTLYLQMNSLRAEDTAVYYCARDRGIAAGGNYYYYGMDVWGQGTTVTVSS
VL: EIVLTQSPATLSLSPGERATLSCRASQSVYSYLAWYQQKPGQAPRLLIYDASNRATGIPARFSGSGSGTDFTLTISSLEPEDFAVYYCQQRSNWPPFTFGPGTKVDIKR
notes: Hybridoma-derived fully human IgG1 kappa mAb (G1m(z)); also called C420A

fold better at blocking TNF binding to p55-sf2, against TNV118 and TNV14 [1]: ~4 fold
B2: TNV86 (GenTNV86.14.34) (antibody, human IgG1, kappa, V domains shown)
VH: B1 VH
VL: B1 VL
notes: Hybridoma-derived fully human IgG1 kappa mAb; also called C417A
